Experimental data as given in PMC7948961, “Proteomic identification and validation of novel interactions of the putative tumor suppressor PRELP with membrane proteins including IGFI-R and p75NTR” (The Journal of Biological Chemistry, 2021).

B1: Recombinant PRELP (rPRELP), human PRELP with a C-terminal FLAG tag, from Mimic Sf9 cells (natural protein, UniProt P51888 21-382, looked up)
chain: QPTRRPRPGTGPGRRPRPRPRPTPSFPQPDEPAEPTDLPPPLPPGPPSIFPDCPRECYCPPDFPSALYCDSRNLRKVPVIPPRIHYLYLQNNFITELPVESFQNATGLRWINLDNNRIRKIDQRVLEKLPGLVFLYMEKNQLEEVPSALPRNLEQLRLSQNHISRIPPGVFSKLENLLLLDLQHNRLSDGVFKPDTFHGLKNLMQLNLAHNILRKMPPRVPTAIHQLYLDSNKIETIPNGYFKSFPNLAFIRLNYNKLTDRGLPKNSFNISNLLVLHLSHNRISSVPAINNRLEHLYLNNNSIEKINGTQICPNDLVAFHDFSSDLENVPHLRYLRLDGNYLKPPIPLDLMMCFRLLQSVVI
notes: Proline and arginine-rich end leucine-rich repeat protein (PRELP), human; secreted into the supernatant; No cleavage of the FLAG tag is described; source: Mimic Sf9 (baculovirus), purified from the supernatant (DDDDK-tagged Protein Purification Gel twice, Benzonase, SEC)

Assays:
[1] = target: T1, Recombinant, soluble IGFI-R (rsIGFI-R), extracellular domain of human IGFI-R (residues 1-905) with a … (human, UniProt P08069 31-935); assay: SPR; Biacore 2000; rPRELP immobilised by amine coupling on CM5 at around 4000 RU; rsIGFI-R or rsp75NTR injected at 30 μl/min; 10 mM HEPES pH 7.5, 150 mM NaCl, 0.05% Tween-20, 15 °C; KD from fitting the equilibrium curve, three independent measurements; details: both partners purified
T1 construct: Insulin-like growth factor 1 receptor, human, extracellular domain, residues 1-905; 31-935 of the precursor P08069; also called extracellular domain of IGFI-R; source: ExpiCHO, transiently transfected, purified from the supernatant (Ni-NTA, SEC)

[2] = target: B1; assay: as above; details: both partners purified

Binder	Kd [1] [µM]	Kd [2] [µM]
B1	6.8	
Recombinant, soluble p75NTR (rsp75NTR), extracellular domain of human p75NTR (residues 1-161) with a C-terminal hexahistidine tag (domain or fragment, Printed residues 1-161 are read as mature numbering (signal 1-28, offset +28): 161+28=189 falls at the end of the fourth cysteine-rich repeat, and the same paper's IGFI-R 1-905 is mature numbering …) KEACPTGLYTHSGECCKACNLGEGVAQPCGANQTVCEPCLDSVTFSDVVSATEPCKPCTECVGLQSMSAPCVEADDAVCRCAYGYYQDETTGRCEACRVCEAGSGLVFSCQDKQNTVCEECPDGTYSDEANHVDPCLPCTVCEDTERQLRECTRWADAECE		12.1
